Test system: MCF10A
Assay: percent viability (nuclei count relative to siNT); higher = more viable cells
Conditions: 20 nM; 72 h
Experimental: (§1)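 After 72 h, cells were fixed and stained with Hoechst and anti-fibrillarin, and nucleoli per nucleus were counted with CellProfiler. Values are plate-adjusted percent effect for the one-nucleolus and 5+ nucleoli phenotypes, normalised to siNT (0%) and to the positive controls siNOL11 or siKIF11 (100%), as the mean of biological triplicates. Percent viability is the nuclei count relative to siNT.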

Sequence | percent viability [%]
AGCAGAAGCAGGGAGGUUCUCCCA [hsa-miR-298] | 25.9
GUGGCUCUGUAGUAAGAUGGA [hsa-miR-8057] | 44.7
GGGGCGCGGCCGGAUCG [hsa-miR-3178] | 93.3
GUUCAAAUCCAGAUCUAUAAC [hsa-miR-607] | 111
GGAGUGGGCUGGUGGUU [hsa-miR-4481] | 37.8
UGGGGUGCCCACUCCGCAAGUU [hsa-miR-4664-5p] | 9.8
CUCUAGAGGGAAGCACUUUCUG [hsa-miR-526a] | 39.9
CACUCAGCCUUGAGGGCACUUUC [hsa-miR-512-5p] | 43.4
AAAACUAGGACUGUGUGGUGUA [hsa-miR-7844-5p] | 40.6
AGACCCUGCAGCCUUCCCACC [hsa-miR-4725-5p] | 36
CAGUGGCCAGAGCCCUGCAGUG [hsa-miR-3677-5p] | 28.6
GCGGAGAGAGAAUGGGGAGC [hsa-miR-5739] | 110
AAAAGUUAUUGCGGUUUUGGCU [hsa-miR-548at-5p] | 54.1
UAUCUGCUGGGCUUUCUGGUGUU [hsa-miR-4686] | 34.5
UCCUGCCUUCCUCUGCACCAG [hsa-miR-6747-3p] | 27
AGACUGACCUUCAACCCCACAG [hsa-miR-6855-3p] | 75.7
GAAAGUAAUUGCUGUUUUUGCC [hsa-miR-548aq-5p] | 118
CCAGUGUGGCUCAGCGAG [hsa-miR-4302] | 28.8
UGUCAGUGACUCCUGCCCCUUGGU [hsa-miR-4697-3p] | 98.6
AGUGCCUGCUAUGUGCCAGGCA [hsa-miR-1271-3p] | 39.3

Sequence | percent viability [%]
UAAUGCAUUAAAUUAUUGAAGG [hsa-miR-5700] | 125
CCAGGAGGCGGAGGAGGUGGAG [hsa-miR-4459] | 64.6
CAAAAGCAAUCGCGGUUUUUGC [hsa-miR-548e-5p] | 60.8
AGCUCUGCUGCUCACUGGCAGU [hsa-miR-3194-3p] | 22.1
UCUGCACUGUGAGUUGGCUGGCU [hsa-miR-4793-3p] | 44.7
CAGGAAGGAUUUAGGGACAGGC [hsa-miR-4476] | 23.3
GGCUGGUCAGAUGGGAGUG [hsa-miR-6131] | 71
AUCAUAGAGGAAAAUCCAUGUU [hsa-miR-376b-3p] | 144
AGCAUACACCUGUAGUCCUAGA [hsa-miR-5689] | 66.7
UUAAGACUUGCAGUGAUGUUU [hsa-miR-499a-5p] | 102
AGGCUGUGAUGCUCUCCUGAGCCC [hsa-miR-7974] | 22.8
UGUUUUGAUAACAGUAAUGU [hsa-miR-2052] | 144
AGUUUGGGAUGGAGAGAGGAGA [hsa-miR-6740-5p] | 83.1
GGGGGGGGGGGGGGGGGGCCG [hsa-miR-1234-5p] | 78.1
UAGGCACACUUAAAGUUAUAGC [hsa-miR-5582-5p] | 13.8
UAGAUCUUUGACUCUGGCAGUCUCCAGG [hsa-miR-7161-3p] | 87.7
UAGUGGUCCUAAACAUUUCACA [hsa-miR-203b-5p] | 15.6
UUUCCGGCUCGCGUGGGUGUGU [hsa-miR-1180] | 31.8
CGGGGAGAGAACGCAGUGACGU [hsa-miR-3175] | 33.4
CUGGGAUCUCCGGGGUCUUGGUU [hsa-miR-769-3p] | 40.7

Sequence | percent viability [%]
CUCUAGAGGGAAGCGCUUUCUG [hsa-miR-523-5p] | 54.8
UGUGAUAUCAUGGUUCCUGGGA [hsa-miR-3689a-5p] | 37.9
GUGCGGAACGCUGGCCGGGGCG [hsa-miR-6850-5p] | 45.3
CCUGAGAAAAGGGCCAA [hsa-miR-4251] | 31.3
CUUUCAGUCAGAUGUUUGCUGC [hsa-miR-30d-3p] | 131
CCCAUCACCUUUCCGUCUCCCCU [hsa-miR-6884-3p] | 70.3
GUGUCUGGGCGGACAGCUGC [hsa-miR-1231] | 39.3
AAAACUGUAAUUACUUUUGUAC [hsa-miR-548g-3p] | 165
AAAAUGAAAUGAGCCCAGCCCA [hsa-miR-3646] | 63.5
UCGGGGAGUCUGGGGUCCGGAAU [hsa-miR-6889-5p] | 30.7
GUAAGGGACCGGAGAGUAGGA [hsa-miR-6892-5p] | 22.3
CAUCCCUUGCAUGGUGGAGGG [hsa-miR-188-5p] | 98.4
CAGUAACAAAGAUUCAUCCUUGU [hsa-miR-802] | 81.8
AGGUGGGUAUGGAGGAGCCCU [hsa-miR-6769a-5p] | 14.3
UGUGAUAUCAUGGUUCCUGGGA [hsa-miR-3689b-5p] | 23.6
AAUGUUGGAAUCCUCGCUAGAG [hsa-miR-4781-3p] | 34.3
CAAAGUGCUGUUCGUGCAGGUAG [hsa-miR-93-5p] | 64.1
UGGGGGGACAGAUGGAGAGGACA [hsa-miR-6887-5p] | 22.6
CUAUACGACCUGCUGCCUUUCU [hsa-let-7d-3p] | 84.7

Test system: MCF10A
Assay: 5+ nucleoli phenotype percent effect (relative to siNT 0% and siKIF11 100%); higher = more cells with five or more nucleoli
Conditions: 20 nM; 72 h
Experimental: as §1

Sequence | 5+ nucleoli phenotype percent effect [%]
AGCAGAAGCAGGGAGGUUCUCCCA [hsa-miR-298] | -22.8
GUGGCUCUGUAGUAAGAUGGA [hsa-miR-8057] | 6.17
GGGGCGCGGCCGGAUCG [hsa-miR-3178] | 51.5
GUUCAAAUCCAGAUCUAUAAC [hsa-miR-607] | 34.2
GGAGUGGGCUGGUGGUU [hsa-miR-4481] | 6.11
UGGGGUGCCCACUCCGCAAGUU [hsa-miR-4664-5p] | -17.8
CUCUAGAGGGAAGCACUUUCUG [hsa-miR-526a] | -7.42
CACUCAGCCUUGAGGGCACUUUC [hsa-miR-512-5p] | -15.2
AAAACUAGGACUGUGUGGUGUA [hsa-miR-7844-5p] | -30.8
AGACCCUGCAGCCUUCCCACC [hsa-miR-4725-5p] | -16
CAGUGGCCAGAGCCCUGCAGUG [hsa-miR-3677-5p] | -20.3
GCGGAGAGAGAAUGGGGAGC [hsa-miR-5739] | 53.5
AAAAGUUAUUGCGGUUUUGGCU [hsa-miR-548at-5p] | 15
UAUCUGCUGGGCUUUCUGGUGUU [hsa-miR-4686] | -43.3
UCCUGCCUUCCUCUGCACCAG [hsa-miR-6747-3p] | -28.9
AGACUGACCUUCAACCCCACAG [hsa-miR-6855-3p] | -20.8
GAAAGUAAUUGCUGUUUUUGCC [hsa-miR-548aq-5p] | 16.5
CCAGUGUGGCUCAGCGAG [hsa-miR-4302] | -22.9
UGUCAGUGACUCCUGCCCCUUGGU [hsa-miR-4697-3p] | 3.98
AGUGCCUGCUAUGUGCCAGGCA [hsa-miR-1271-3p] | 4.16
UAAUGCAUUAAAUUAUUGAAGG [hsa-miR-5700] | 47.4
CCAGGAGGCGGAGGAGGUGGAG [hsa-miR-4459] | -0.862
CAAAAGCAAUCGCGGUUUUUGC [hsa-miR-548e-5p] | 44
AGCUCUGCUGCUCACUGGCAGU [hsa-miR-3194-3p] | 6.75
UCUGCACUGUGAGUUGGCUGGCU [hsa-miR-4793-3p] | -3.16
CAGGAAGGAUUUAGGGACAGGC [hsa-miR-4476] | -8.98
GGCUGGUCAGAUGGGAGUG [hsa-miR-6131] | 1.34
AUCAUAGAGGAAAAUCCAUGUU [hsa-miR-376b-3p] | 52.2
AGCAUACACCUGUAGUCCUAGA [hsa-miR-5689] | 2.26

Reference: the supplement of paper PMC10899765
